Measurements as given in PMC3580838.

What was measured:
GST:CcmC(W^5A/D126A) = GST:CcmC(W^5A/D126A) (UniProt P0ABM1); experiment: pull-down
GST:CcmC(H60A/H184A) = GST:CcmC(H60A/H184A) (UniProt P0ABM1); experiment: pull-down

A % CcmE bound with heme (GST:CcmC(W^5A/D126A)) of under 4%, a % holoCcmE bound with heme (GST:CcmC(W^5A/D126A)) of under 3% and a % CcmE bound with heme (GST:CcmC(H60A/H184A)) of under 4% were found for “CcmE (from UniProt P69490 30-159) (natural protein)” in this work. The % holoCcmE bound with heme (GST:CcmC(H60A/H184A)) was under 3%.
